Experimental data from paper PMC11536449.
Like-named read-outs stand apart in the source and are kept apart here.

T1: CmRSM1-GST (Cucumis melo (melon), UniProt A0A1S3CDK8 1-116)
T1 sequence: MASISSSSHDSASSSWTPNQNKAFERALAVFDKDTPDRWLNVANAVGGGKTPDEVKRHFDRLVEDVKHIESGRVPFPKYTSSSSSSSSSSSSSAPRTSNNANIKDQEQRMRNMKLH

B1: P1 probe (CmBr promoter, Myb motif) (dsDNA)
DNA 1: ACATTTACTTTTAGATGAAATTGTAACAGTTAGCTAAGTCGTTCACTTCGTTGAAATTA
DNA 2: TAATTTCAACGAAGTGAACGACTTAGCTAACTGTTACAATTTCATCTAAAAGTAAATGT
B2: P2 probe (CmBr promoter, MYB and MBS motifs) (dsDNA)
DNA 1: GACAACAAATTTATAAGTAATTGTTCAACCAACTGAAAACGAGAAAAGTAAATATATCT
DNA 2: AGATATATTTACTTTTCTCGTTTTCAGTTGGTTGAACAATTACTTATAAATTTGTTGTC
B3: P3 probe (CmBr promoter, MRE motif) (dsDNA)
DNA 1: ACTTAGTTTTGAGATCAAATAACTCCTTAGGTTAGTTAATCATTCATTGATTCAATCAA
DNA 2: TTGATTGAATCAATGAATGATTAACTAACCTAAGGAGTTATTTGATCTCAAAACTAAGT

What was measured:
[1] = target: T1, CmRSM1-GST; assay: EMSA
[2] = target: T1, CmRSM1-GST; assay: EMSA; remark: listed apart in the source

Row | Binder | binding result [1] | binding result [2]
1 | B1 | binds | 
2 | B2 |  | no binding
3 | B3 |  | no binding
